Source: patent US20030186284A1

Target: proteoglycan-type receptor-type protein tyrosine phosphatase (PTP?), mouse (mouse) (UniProt B9EKR1)
Assay: cell-based or functional assay

Chain of UniProt B9EKR1 (B9EKR1 25-2312): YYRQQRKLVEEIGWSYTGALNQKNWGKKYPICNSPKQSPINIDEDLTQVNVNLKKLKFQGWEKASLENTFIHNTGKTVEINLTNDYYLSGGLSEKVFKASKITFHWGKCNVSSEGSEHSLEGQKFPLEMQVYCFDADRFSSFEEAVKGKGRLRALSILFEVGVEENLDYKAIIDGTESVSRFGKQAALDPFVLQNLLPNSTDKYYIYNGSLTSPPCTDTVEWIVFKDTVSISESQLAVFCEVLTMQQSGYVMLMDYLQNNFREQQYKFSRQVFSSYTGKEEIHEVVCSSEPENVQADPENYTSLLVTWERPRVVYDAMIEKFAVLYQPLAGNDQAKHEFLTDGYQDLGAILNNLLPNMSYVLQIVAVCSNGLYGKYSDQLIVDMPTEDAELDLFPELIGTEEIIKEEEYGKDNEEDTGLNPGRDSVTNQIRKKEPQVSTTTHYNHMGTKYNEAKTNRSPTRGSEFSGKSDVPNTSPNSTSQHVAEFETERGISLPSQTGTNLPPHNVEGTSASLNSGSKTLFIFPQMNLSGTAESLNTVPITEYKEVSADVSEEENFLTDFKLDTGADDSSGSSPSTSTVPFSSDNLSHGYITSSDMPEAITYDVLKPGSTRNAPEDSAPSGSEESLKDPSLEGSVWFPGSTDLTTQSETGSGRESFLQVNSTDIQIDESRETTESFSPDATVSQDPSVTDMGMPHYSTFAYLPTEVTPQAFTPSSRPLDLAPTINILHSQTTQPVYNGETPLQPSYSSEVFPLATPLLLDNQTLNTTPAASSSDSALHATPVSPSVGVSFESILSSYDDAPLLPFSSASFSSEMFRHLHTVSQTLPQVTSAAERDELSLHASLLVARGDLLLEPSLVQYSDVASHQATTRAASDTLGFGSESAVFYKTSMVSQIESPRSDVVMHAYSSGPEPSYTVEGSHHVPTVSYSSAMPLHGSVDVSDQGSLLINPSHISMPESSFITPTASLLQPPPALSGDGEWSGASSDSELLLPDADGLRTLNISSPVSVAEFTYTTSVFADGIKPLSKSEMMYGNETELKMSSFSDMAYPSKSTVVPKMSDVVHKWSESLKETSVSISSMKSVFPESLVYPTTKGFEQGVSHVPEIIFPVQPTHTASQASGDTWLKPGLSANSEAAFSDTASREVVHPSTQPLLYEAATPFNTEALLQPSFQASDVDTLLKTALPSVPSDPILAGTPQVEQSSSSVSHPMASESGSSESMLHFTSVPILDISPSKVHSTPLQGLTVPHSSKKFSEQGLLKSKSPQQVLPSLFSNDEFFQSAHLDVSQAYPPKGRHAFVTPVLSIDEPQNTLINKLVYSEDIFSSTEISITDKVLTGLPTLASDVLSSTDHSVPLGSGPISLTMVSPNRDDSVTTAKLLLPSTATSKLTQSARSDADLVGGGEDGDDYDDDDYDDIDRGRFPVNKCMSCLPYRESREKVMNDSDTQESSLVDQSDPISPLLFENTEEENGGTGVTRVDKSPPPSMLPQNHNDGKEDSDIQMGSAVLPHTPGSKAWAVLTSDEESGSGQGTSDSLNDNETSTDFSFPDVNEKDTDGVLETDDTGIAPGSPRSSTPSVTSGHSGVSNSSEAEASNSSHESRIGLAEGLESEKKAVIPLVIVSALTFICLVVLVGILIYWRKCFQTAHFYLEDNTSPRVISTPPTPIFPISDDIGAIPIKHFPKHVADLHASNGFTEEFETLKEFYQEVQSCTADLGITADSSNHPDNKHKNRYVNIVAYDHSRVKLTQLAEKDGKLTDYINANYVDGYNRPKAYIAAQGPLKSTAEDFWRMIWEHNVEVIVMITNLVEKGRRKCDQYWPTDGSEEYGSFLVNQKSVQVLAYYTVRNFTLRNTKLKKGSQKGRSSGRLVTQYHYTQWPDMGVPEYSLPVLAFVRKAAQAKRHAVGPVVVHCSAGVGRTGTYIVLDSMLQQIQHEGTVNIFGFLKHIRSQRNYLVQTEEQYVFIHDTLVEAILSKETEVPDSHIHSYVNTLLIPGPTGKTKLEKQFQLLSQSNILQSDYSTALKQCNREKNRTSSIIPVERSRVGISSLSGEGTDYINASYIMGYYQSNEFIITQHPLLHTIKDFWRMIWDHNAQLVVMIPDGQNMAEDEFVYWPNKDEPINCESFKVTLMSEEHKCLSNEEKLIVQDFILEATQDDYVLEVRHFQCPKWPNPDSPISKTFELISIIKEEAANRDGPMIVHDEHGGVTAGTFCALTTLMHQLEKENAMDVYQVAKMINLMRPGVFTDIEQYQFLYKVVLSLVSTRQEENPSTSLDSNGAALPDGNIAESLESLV

Substance: VacA, a toxin of Helicobacter pylori (ligand)
- epithelial damage score (EDS), wild-type (PTP?+/+) mice, VacA 0.125 mg/kg (score (scale 1-4)): 1.8
- epithelial damage score (EDS), wild-type (PTP?+/+) mice, VacA 0.250 mg/kg (score (scale 1-4)): 2.2
- inflammation score (IS), wild-type (PTP?+/+) mice, VacA 0.125 mg/kg (score (scale 1-4)): 1.4
- inflammation score (IS), wild-type (PTP?+/+) mice, VacA 0.250 mg/kg (score (scale 1-4)): 1.4
